Consider two molecules from patent publication US20040136959A1 (published 2004).

For assay [1], the target named is human IL-13 receptor α2 chain (IL-13Rα2) (human) (UniProt Q14627). The experiment in a line: cell-based or functional assay.
Assay [2] concerns the target IL-13 receptor (IL-13R) as naturally present on the human cell lines (human). The experiment in a line: cell-based or functional assay.
Assay [3] deals with T1, human IL-13 receptor α2 chain (IL-13Rα2) (human, UniProt Q14627 27-380).
T1 construct: also called IL-13Rα2 chain; IL-13Rα chain
T1 sequence: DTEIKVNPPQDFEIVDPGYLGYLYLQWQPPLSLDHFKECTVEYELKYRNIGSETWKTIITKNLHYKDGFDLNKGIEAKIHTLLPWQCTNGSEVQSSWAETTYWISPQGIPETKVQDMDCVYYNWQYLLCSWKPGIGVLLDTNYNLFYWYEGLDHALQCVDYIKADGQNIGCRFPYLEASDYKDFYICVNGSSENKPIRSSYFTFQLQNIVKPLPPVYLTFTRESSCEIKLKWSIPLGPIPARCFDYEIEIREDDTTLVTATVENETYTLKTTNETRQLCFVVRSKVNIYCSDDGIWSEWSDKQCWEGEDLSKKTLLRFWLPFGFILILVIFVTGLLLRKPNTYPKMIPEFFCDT
Briefly: 125I-IL-4 radioreceptor binding on SCCHN cells, vector control against IL-13Rα2 transfectants.

Bounds are passed on as bounds.

In assay [1], “IL-13-PE38 (from UniProt P35225 25-146; P11439 278-389; P11439 406-638)” had an IC50, inhibition of protein synthesis, HN12 cells (IL-13Rα2-positive) of 0.0075 µg/mL; an IC50, inhibition of protein synthesis, IL-13Rα2-positive SCCHN cell lines below 0.01 µg/mL; an IC50, inhibition of protein synthesis, KCCTC873 cells (IL-13Rα2-positive) of 0.008 µg/mL; an IC50, inhibition of protein synthesis, YCUM911 cells (IL-13Rα2-positive) of 0.004 µg/mL. In addition, in assay [2], the IC50, inhibition of protein synthesis, A253 cells stood at 0.155 µg/mL; the IC50, inhibition of protein synthesis, Hep-2 cells was 0.2 µg/mL; the IC50, inhibition of protein synthesis, KB cells is 0.1 µg/mL; the IC50, inhibition of protein synthesis, KCCL871 cells came out at 0.185 µg/mL. In assay [2], the IC50, inhibition of protein synthesis, KCCT871 cells was 0.275 µg/mL; the IC50, inhibition of protein synthesis, KCCT891 cells is above 1 µg/mL; the IC50, inhibition of protein synthesis, KCCTCM901 cells was 0.11 µg/mL; the IC50, inhibition of protein synthesis, RPMI2650 cells is above 1 µg/mL. In addition, in assay [2], the IC50, inhibition of protein synthesis, YCU891 cells is 0.5 µg/mL; the IC50, inhibition of protein synthesis, YCUM862 cells was above 1 µg/mL; the IC50, inhibition of protein synthesis, YCUT891 cells was above 1 µg/mL; the IC50, inhibition of protein synthesis, YCUT892 cells was above 1 µg/mL. For the same molecule, the IC50, inhibition of protein synthesis, other 14 SCCHN cell lines in assay [2] fell in the range of 0.1 to 1 µg/mL.

B1: Recombinant human IL-4 (ligand, UniProt P05112 25-153, looked up)
chain: HKCDITLQEIIKTLNSLTEQKTLCTELTVTDIFAASKNTTEKETFCRAATVLRQFYSHHEKDTRCLGATAQQFHRHKQLIRFLKRLDRNLWGLAGLNSCPVKEANQSTLENFLERLKTIMREKYSKCSS
notes: also called unlabeled IL-4
In the case of B1, the binding result in assay [3] is “no binding”.
